Data on 16 variants can be found in the supplement of paper PMC7125110.

± gives the standard error. For part of these data: Fewer inactive variants are shown than the library holds.

B1: glmS ribozyme (parent)
chain: AUAAAAGCGCCAGAACUACAGAAAUGUAGUUGACGAGGAGGAGGUUUAUCGAAUUUUCGGCGGAUGCCUCCAAA

Common to all, as to conditions: with glucosamine-6-phosphate
Data set [1] covers variants of B1. As to the kind of experiment: kcat; higher = faster cleavage; RNA array. In a few lines:
(§1)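 Tracking of barcoded ribozyme variants used a hybridised Cy3 probe at 37 °C, after in situ transcription by E. coli RNA polymerase on sequenced MiSeq chips. The flowed solution held 40 μM to 10 mM glucosamine-6-phosphate in HEPES/KCl/Mg(OAc)2 buffer, and imaging ran over ~14 h. kobs was taken from exponential decay fits of normalised per-tile medians, and kcat and KM from weighted Michaelis–Menten fits.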

The variants in data set [2] derive from B1. Briefly: self-cleavage kobs at 40 uM GlcN6P; higher = faster cleavage; RNA array. In a few lines:
as §1

In data set [3] the parent is B1. Briefly: self-cleavage kobs at 640 uM GlcN6P; higher = faster cleavage; RNA array. In a few lines:
as §1

Variants of B1 are the subject of data set [4]. Briefly: self-cleavage kobs at 2500 uM GlcN6P; higher = faster cleavage; RNA array. The procedure, abridged: as §1
Data set [5] covers variants of B1. As to the kind of experiment: self-cleavage kobs at 10000 uM GlcN6P; higher = faster cleavage; RNA array. In a few lines: as §1
In data set [6] the parent is B1. Briefly: KM; higher = weaker cofactor use; RNA array. The procedure, abridged: as §1
The variants in data set [7] derive from B1. As to the kind of experiment: self-cleavage kobs at 160 uM GlcN6P; higher = faster cleavage; RNA array. In a few lines: as §1

With U30A U55A C71U, the kcat (in general, the number of substrate molecules converted per active site and unit of time at saturation) in data set [1] is 0.00347 ± 0.0015 s⁻¹. For the same variant, in data set [2], the “self-cleavage kobs at 40 uM GlcN6P” value is 0.000138 ± 3.7e-05 s⁻¹. For the same variant, the “self-cleavage kobs at 640 uM GlcN6P” value in data set [3] was determined as 0.00113 ± 0.00035 s⁻¹. For the same variant, in data set [4], the “self-cleavage kobs at 2500 uM GlcN6P” value came to 0.00197 ± 0.00068 s⁻¹. Also, the “self-cleavage kobs at 10000 uM GlcN6P” value in data set [5] was determined as 0.00566 ± 0.0018 s⁻¹.
For the variant C34U C58A, the kcat in data set [1] was less than 1e-05 s⁻¹. Also, the “self-cleavage kobs at 40 uM GlcN6P” value in data set [2] is less than 1e-05 s⁻¹. The “self-cleavage kobs at 640 uM GlcN6P” value in data set [3] is less than 1e-05 s⁻¹. For the same variant, in data set [4], the “self-cleavage kobs at 2500 uM GlcN6P” value is less than 1e-05 s⁻¹.
G59U C68A: in data set [1], the kcat amounted to 2.28e-05 ± 4.9e-06 s⁻¹.
As to C10A A48U, the kcat in data set [1] is less than 1e-05 s⁻¹. Moreover, the “self-cleavage kobs at 640 uM GlcN6P” value in data set [3] is less than 1e-05 s⁻¹. Further, the “self-cleavage kobs at 10000 uM GlcN6P” value in data set [5] was less than 1e-05 s⁻¹.
In the case of G66A C67A C71U, the kcat in data set [1] amounted to 0.00289 ± 0.0012 s⁻¹. Further, in data set [2], the “self-cleavage kobs at 40 uM GlcN6P” value was found to be 6.11e-05 ± 1.7e-05 s⁻¹. In addition, in data set [3], the “self-cleavage kobs at 640 uM GlcN6P” value is 0.000304 ± 6.2e-05 s⁻¹. For the same variant, the “self-cleavage kobs at 2500 uM GlcN6P” value in data set [4] turned out to be 0.00101 ± 0.00048 s⁻¹. Further, the “self-cleavage kobs at 10000 uM GlcN6P” value in data set [5] stood at 0.002 ± 0.00029 s⁻¹.
For the variant A6C U55C, in data set [1], the kcat was 0.000127 ± 4e-05 s⁻¹. In addition, in data set [4], the “self-cleavage kobs at 2500 uM GlcN6P” value was determined as 3.24e-05 ± 1.2e-05 s⁻¹. In data set [5], the “self-cleavage kobs at 10000 uM GlcN6P” value is 7.95e-05 ± 1.6e-05 s⁻¹.
Consider C11U U47G, for which the kcat in data set [1] was found to be 0.000176 ± 3.3e-05 s⁻¹. In addition, the “self-cleavage kobs at 640 uM GlcN6P” value in data set [3] is 7.97e-05 ± 1.3e-05 s⁻¹. Besides, the “self-cleavage kobs at 2500 uM GlcN6P” value in data set [4] came to 0.000191 ± 3.3e-05 s⁻¹. Besides, the “self-cleavage kobs at 10000 uM GlcN6P” value in data set [5] is 0.000149 ± 2.2e-05 s⁻¹.
With U54G A64C, the kcat in data set [1] stood at 0.000177 ± 1.8e-05 s⁻¹. The KM (as a rule, the substrate concentration at which the rate is half of its maximum) in data set [6] was found to be 2030 ± 590 µM. The “self-cleavage kobs at 40 uM GlcN6P” value in data set [2] is less than 1e-05 s⁻¹. The “self-cleavage kobs at 640 uM GlcN6P” value in data set [3] is 3.56e-05 ± 1.3e-05 s⁻¹. The “self-cleavage kobs at 2500 uM GlcN6P” value in data set [4] was 0.000116 ± 2.4e-05 s⁻¹. In addition, the “self-cleavage kobs at 10000 uM GlcN6P” value in data set [5] came out at 0.000143 ± 1.8e-05 s⁻¹.
For the variant U55G U57A, the kcat in data set [1] stood at 0.000252 ± 8.2e-06 s⁻¹. In data set [6], the KM was found to be 2520 ± 190 µM. The “self-cleavage kobs at 640 uM GlcN6P” value in data set [3] turned out to be 5.17e-05 ± 1e-05 s⁻¹. Moreover, in data set [4], the “self-cleavage kobs at 2500 uM GlcN6P” value was found to be 0.000124 ± 1.5e-05 s⁻¹. Also, the “self-cleavage kobs at 10000 uM GlcN6P” value in data set [5] was 0.000203 ± 2e-05 s⁻¹.
Take G13U U55A: in data set [1], the kcat is 0.00182 ± 0.00037 s⁻¹. The KM in data set [6] amounted to 3540 ± 1200 µM. The “self-cleavage kobs at 40 uM GlcN6P” value in data set [2] amounted to 3.28e-05 ± 7.2e-06 s⁻¹. In addition, the “self-cleavage kobs at 160 uM GlcN6P” value in data set [7] came out at 8.82e-05 ± 1.7e-05 s⁻¹. In addition, in data set [3], the “self-cleavage kobs at 640 uM GlcN6P” value was 0.000214 ± 4e-05 s⁻¹. Further, the “self-cleavage kobs at 2500 uM GlcN6P” value in data set [4] stood at 0.000853 ± 0.00015 s⁻¹. For the same variant, in data set [5], the “self-cleavage kobs at 10000 uM GlcN6P” value is 0.00135 ± 0.00013 s⁻¹.
For G13U U55C, the kcat in data set [1] amounted to 0.000878 ± 0.00013 s⁻¹. In addition, the KM in data set [6] came to 3970 ± 1200 µM. Also, the “self-cleavage kobs at 160 uM GlcN6P” value in data set [7] was determined as 2.79e-05 ± 1.3e-05 s⁻¹. Moreover, the “self-cleavage kobs at 640 uM GlcN6P” value in data set [3] was found to be 0.000149 ± 3.4e-05 s⁻¹. In addition, the “self-cleavage kobs at 2500 uM GlcN6P” value in data set [4] amounted to 0.000304 ± 5.4e-05 s⁻¹. In addition, in data set [5], the “self-cleavage kobs at 10000 uM GlcN6P” value stood at 0.000642 ± 7e-05 s⁻¹.
In the case of A15U C16A, in data set [1], the kcat was determined as 0.00121 ± 9.4e-05 s⁻¹. Also, the KM in data set [6] came to 2740 ± 310 µM. Also, in data set [7], the “self-cleavage kobs at 160 uM GlcN6P” value was 6.19e-05 ± 8.7e-06 s⁻¹. Moreover, the “self-cleavage kobs at 640 uM GlcN6P” value in data set [3] came to 0.000244 ± 2.2e-05 s⁻¹. The “self-cleavage kobs at 2500 uM GlcN6P” value in data set [4] worked out at 0.000544 ± 7e-05 s⁻¹. For the same variant, the “self-cleavage kobs at 10000 uM GlcN6P” value in data set [5] came out at 0.000959 ± 9.8e-05 s⁻¹.
As for G32C A52U, in data set [1], the kcat was less than 1e-05 s⁻¹. In addition, the “self-cleavage kobs at 40 uM GlcN6P” value in data set [2] is less than 1e-05 s⁻¹.
Take U54G U56G: the kcat in data set [1] is 0.016 ± 0.0043 s⁻¹. Further, the KM in data set [6] turned out to be 2790 ± 950 µM. Moreover, in data set [7], the “self-cleavage kobs at 160 uM GlcN6P” value came out at 0.000796 ± 0.00017 s⁻¹. Moreover, the “self-cleavage kobs at 640 uM GlcN6P” value in data set [3] is 0.00338 ± 0.00059 s⁻¹. For the same variant, the “self-cleavage kobs at 2500 uM GlcN6P” value in data set [4] came out at 0.00688 ± 0.0019 s⁻¹. In addition, the “self-cleavage kobs at 10000 uM GlcN6P” value in data set [5] stood at 0.013 ± 0.0058 s⁻¹.
Turning to U57G C68A C70U, the kcat in data set [1] was determined as 3.59e-05 ± 1.7e-05 s⁻¹. Moreover, the “self-cleavage kobs at 640 uM GlcN6P” value in data set [3] was 5.38e-05 ± 1.8e-05 s⁻¹.
On to U31A U46A, for which the kcat in data set [1] was determined as 0.00237 ± 0.00062 s⁻¹. Also, in data set [6], the KM was found to be 5680 ± 2600 µM. Further, the “self-cleavage kobs at 40 uM GlcN6P” value in data set [2] stood at 3.33e-05 ± 1.3e-05 s⁻¹. Moreover, the “self-cleavage kobs at 160 uM GlcN6P” value in data set [7] was determined as 4.27e-05 ± 1.9e-05 s⁻¹. The “self-cleavage kobs at 640 uM GlcN6P” value in data set [3] stood at 0.000292 ± 9.4e-05 s⁻¹. For the same variant, the “self-cleavage kobs at 2500 uM GlcN6P” value in data set [4] turned out to be 0.000857 ± 0.0002 s⁻¹. In data set [5], the “self-cleavage kobs at 10000 uM GlcN6P” value was 0.00149 ± 0.00018 s⁻¹.
